As a reminder, the Kd is the constant that tells how readily two partners part at equilibrium. One may read the IC50 as the midpoint of a concentration-inhibition curve. A higher IC50 goes with weaker potency in that assay.

Consider eleven sequences from the Immune Epitope Database (IEDB).

Assay [1] addresses HLA-B*39:01. Nature of the assay: IEDB peptide-MHC binding, purified MHC/competitive/fluorescence; filed as Kd, often an IC50 or EC50 that approximates it; ≥ and ≤ were set here for values at or beyond the usual limits of such assays. The conditions noted are these: source organism: Shigella boydii CDC 3083-94.
Assay [2] has as its target HLA-B*15:01. Described as above. The conditions noted are these: source organism: Shigella boydii CDC 3083-94.
The target of assay [3] is HLA-A*29:02. The description is as above. The conditions noted are these: source organism: Shigella boydii CDC 3083-94.
Assay [4] has as its target HLA-A*24:03. The description is as above. The conditions noted are these: source organism: Shigella boydii CDC 3083-94.
In a further assay the target is HLA-A*26:01. The assay is described as above.
Assay [5] addresses HLA-B*46:01. Described as above. The conditions noted are these: source organism: Shigella boydii CDC 3083-94.
For assay [6], the target named is HLA-A*03:01. The description is as above. The conditions noted are these: source organism: Shigella boydii CDC 3083-94.
The target in assay [7] is HLA-A*02:01. The description is as above. The conditions noted are these: source organism: Shigella boydii CDC 3083-94.
Assay [8] has as its target HLA-B*18:01. Described as above. The conditions noted are these: source organism: Shigella boydii CDC 3083-94.
The target in a further assay is HLA-B*27:03. Described as above.
The target of the next assay is HLA-B*15:17. Described as above.
For assay [9], the target named is HLA-B*57:01. The assay is described as above. The conditions noted are these: source organism: Shigella boydii CDC 3083-94.
The target in assay [10] is HLA-A*23:01. The assay is described as above. The conditions noted are these: source organism: Shigella boydii CDC 3083-94.
The target of the next assay is HLA-A*02:19. The assay is described as above. The conditions noted are these: source organism: Shigella boydii CDC 3083-94.
Assay [11] has as its target HLA-B*58:01. Briefly: IEDB peptide-MHC binding, purified MHC/competitive/radioactivity; filed as Kd, often an IC50 or EC50 that approximates it; ≥ and ≤ were set here for values at or beyond the usual limits of such assays.
The target of assay [12] is HLA-B*57:01. The assay is described as above.
The target of the next assay is HLA-A*32:01. The assay is described as above.
The target of assay [13] is HLA-A*01:01. The description is as above. The conditions noted are these: source organism: Dengue virus 2 Jamaica/1409/1983.
Assay [14] concerns the target HLA-A*68:02. The description is as above. The conditions noted are these: source organism: Dengue virus 4 Philippines/H241/1956.
The target of assay [15] is HLA-B*39:01. Briefly: IEDB peptide-MHC binding, purified MHC/direct/fluorescence; filed as Kd, often an IC50 or EC50 that approximates it; ≥ and ≤ were set here for values at or beyond the usual limits of such assays. The conditions noted are these: source organism: Ebola virus - Gabon (1994-1997).
The target in assay [16] is HLA-A*11:01. The assay is described as above. The conditions noted are these: source organism: Ebola virus - Gabon (1994-1997).
In a further assay the target is HLA-B*27:05. The description is as above. The conditions noted are these: source organism: Ebola virus - Gabon (1994-1997).
The target of assay [17] is HLA-B*15:01. The assay is described as above. The conditions noted are these: source organism: Ebola virus - Gabon (1994-1997).
The next assay deals with HLA-A*02:12. The assay is described as above. The conditions noted are these: source organism: Zaire ebolavirus.
In assay [18] the target is HLA-A*29:02. Described as above. The conditions noted are these: source organism: Ebola virus - Gabon (1994-1997).
A further assay addresses HLA-A*69:01. The description is as above. The conditions noted are these: source organism: Ebola virus - Gabon (1994-1997).
Another assay deals with HLA-B*40:01. The description is as above. The conditions noted are these: source organism: Ebola virus - Gabon (1994-1997).
Assay [19] addresses HLA-A*24:03. The assay is described as above. The conditions noted are these: source organism: Zaire ebolavirus.
Assay [20] concerns the target HLA-B*46:01. The description is as above. The conditions noted are these: source organism: Ebola virus - Gabon (1994-1997).
For assay [21], the target named is HLA-A*03:01. The assay is described as above. The conditions noted are these: source organism: Ebola virus - Gabon (1994-1997).
The target of assay [22] is HLA-A*02:01. The assay is described as above. The conditions noted are these: source organism: Ebola virus - Gabon (1994-1997).
The target of assay [23] is HLA-B*18:01. The description is as above. The conditions noted are these: source organism: Ebola virus - Gabon (1994-1997).
A further assay deals with HLA-B*44:02. The description is as above. The conditions noted are these: source organism: Ebola virus - Gabon (1994-1997).
The target in assay [24] is HLA-B*58:01. Described as above. The conditions noted are these: source organism: Ebola virus - Gabon (1994-1997).
The target of assay [25] is HLA-A*68:02. Described as above. The conditions noted are these: source organism: Zaire ebolavirus.
Assay [26] addresses HLA-B*57:01. The description is as above. The conditions noted are these: source organism: Ebola virus - Gabon (1994-1997).
Assay [27] addresses HLA-A*01:01. The description is as above. The conditions noted are these: source organism: Ebola virus - Gabon (1994-1997).
Assay [28] concerns the target HLA-A*23:01. The assay is described as above. The conditions noted are these: source organism: Zaire ebolavirus.
The target in another assay is HLA-B*07:02. Described as above. The conditions noted are these: source organism: Ebola virus - Gabon (1994-1997).
In the next assay the target is HLA-B*51:01. Nature of the assay: IEDB peptide-MHC binding, purified MHC/competitive/fluorescence; filed as Kd, often an IC50 or EC50 that approximates it; ≥ and ≤ were set here for values at or beyond the usual limits of such assays. The conditions noted are these: source organism: Zaire ebolavirus.
For a further assay, the target named is HLA-B*53:01. Nature of the assay: IEDB peptide-MHC binding, purified MHC/competitive/radioactivity; filed as Kd, often an IC50 or EC50 that approximates it; ≥ and ≤ were set here for values at or beyond the usual limits of such assays. The conditions noted are these: source organism: Dengue virus 4 Philippines/H241/1956.
Assay [29] deals with HLA-A*11:01. Nature of the assay: IEDB peptide-MHC binding, purified MHC/competitive/fluorescence; ≥ and ≤ were set here for values at or beyond the usual limits of such assays. The conditions noted are these: source organism: Vaccinia virus.
Assay [30] addresses HLA-A*01:01. The description is as above.
For assay [31], the target named is HLA-A*02:01. The assay is described as above. The conditions noted are these: source organism: Sudan ebolavirus.
Setting [32] is: source organism: Shigella boydii CDC 3083-94.
The mark [33] stands for this setting: source organism: Dengue virus 4 Philippines/H241/1956.
Where [34] appears, read: source organism: Dengue virus 2 Jamaica/1409/1983.
[35] abbreviates: source organism: Zaire ebolavirus.
The mark [36] stands for this setting: source organism: Dengue virus 3 Martinique/1243/1999.

For MAMTGLPQA, the Kd with HLA-B*39:01 [1], with HLA-B*15:01 [2], with HLA-A*29:02 [3], in the assay with HLA-A*24:03 [4], in the assay with HLA-A*26:01 (setting [32]) and with HLA-B*46:01 [5] was at least 20 µM throughout. Also, the dissociation constant (Kd) with HLA-A*03:01 [6] is at least 20 µM; with HLA-A*02:01 [7] it was 0.0008 µM; with HLA-B*18:01 [8] it was at least 20 µM; with HLA-B*27:03 (setting [32]) it was at least 20 µM; in the assay with HLA-B*15:17 (setting [32]), at least 20 µM; in the assay with HLA-B*57:01 [9] it was at least 20 µM. For the same sequence, the Kd with HLA-A*23:01 [10] was at least 20 µM; in the assay with HLA-A*02:19 it was 0.0003 µM.
IGLSSRATW: the Kd with HLA-B*58:01 [11] (setting [33]) was found to be 0.00663 µM; in the assay with HLA-B*57:01 [12] (setting [33]), 0.0481 µM.
As to RVWIQENPW, the equilibrium dissociation constant (Kd) in the assay with HLA-A*32:01 (setting [34]) was found to be 0.0224 µM; with HLA-B*58:01 [11] (setting [34]) it was 0.0034 µM; with HLA-B*57:01 [12] (setting [34]), 0.00787 µM.
STSLSVSLVL: the Kd with HLA-B*57:01 [12] (setting [34]) turned out to be 0.667 µM; with HLA-A*01:01 [13], 12 µM.
Regarding LASMAICSAV, the Kd in the assay with HLA-B*58:01 [11] (setting [33]) was 0.586 µM; with HLA-A*68:02 [14], 0.0262 µM; with HLA-B*57:01 [12] (setting [33]), at least 21.9 µM.
In the case of AKATGRYNL, the Kd was 0.78 µM in the assay with HLA-B*39:01 [15]; at least 20 µM with HLA-A*11:01 [16]; at least 20 µM with HLA-B*27:05; at least 20 µM in the assay with HLA-B*15:01 [17]; at least 20 µM in the assay with HLA-A*02:12; at least 20 µM with HLA-A*29:02 [18]. The Kd with HLA-A*69:01, with HLA-B*40:01, in the assay with HLA-A*24:03 [19], with HLA-B*46:01 [20], with HLA-A*03:01 [21] and with HLA-A*02:01 [22] was at least 20 µM each time. The Kd with HLA-B*18:01 [23], with HLA-B*44:02, with HLA-B*58:01 [24], with HLA-A*68:02 [25], with HLA-B*57:01 [26] and in the assay with HLA-A*01:01 [27] was at least 20 µM each time. Besides, the Kd in the assay with HLA-A*23:01 [28], with HLA-B*07:02, with HLA-B*51:01, in the assay with HLA-A*26:01 (setting [35]), with HLA-B*27:03 (setting [35]) and with HLA-B*15:17 (setting [35]) was at least 20 µM each time.
Take MVMTTTANW: the dissociation constant (Kd) with HLA-A*32:01 (setting [33]) is 0.0263 µM; with HLA-B*58:01 [11] (setting [33]), 0.0162 µM; in the assay with HLA-B*57:01 [12] (setting [33]), 0.011 µM; with HLA-B*53:01 it was 0.00345 µM.
With GTEKEFLRY, the IC50 with HLA-A*11:01 [29] turned out to be 11.5 µM; with HLA-A*01:01 [30] (source organism: Vaccinia virus) it was 6.64 µM.
Turning to VTEIDQLVC, the 50% inhibitory concentration (IC50) with HLA-A*02:01 [31] is at least 322 µM; with HLA-A*01:01 [30] (source organism: Sudan ebolavirus) it was 34.2 µM.
On to TASGKLITEW, for which the Kd was 0.163 µM with HLA-B*58:01 [11] (setting [34]) and 0.0497 µM with HLA-B*57:01 [12] (setting [34]).
NSSFIIDGPN: the values for the Kd with HLA-B*58:01 [11] (setting [36]) and with HLA-B*57:01 [12] (setting [36]) were 0.00543 µM and 0.142 µM, respectively.
